# In publication PMC12000434 (2025):
# B1: FLAG-NDP52^WT [human] / HA-LC3C [human] (parent complex)
# chain 1: MEETIKDPPTSAVLLDHCHFSQVIFNSVEKFYIPGGDVTCHYTFTQHFIPRRKDWIGIFRVGWKTTREYYTFMWVTLPIDLNNKSAKQQEVQFKAYYLPKDDEYYQFCYVDEDGVVRGASIPFQFRPENEEDILVVTTQGEVEEIEQHNKELCKENQELKDSCISLQKQNSDMQAELQKKQEELETLQSINKKLELKVKEQKDYWETELLQLKEQNQKMSSENEKMGIRVDQLQAQLSTQEKEMEKLVQGDQDKTEQLEQLKKENDHLFLSLTEQRKDQKKLEQTVEQMKQNETTAMKKQQELMDENFDLSKRLSENEIICNALQRQKERLEGENDLLKRENSRLLSYMGLDFNSLPYQVPTSDEGGARQNPGLAYGNPYSGIQESSSPSPLSIKKCPICKADDICDHTLEQQQMQPLCFNCPICDKIFPATEKQIFEDHVFCHSL
# chain 2: MPPPQKIPSVRPFKQRKSLAIRQEEVAGIRAKFPNKIPVVVERYPRETFLPPLDKTKFLVPQELTMTQFLSIIRSRMVLRATEAFYLLVNNKSLVSMSATMAEIYRDYKDEDGFVYMTYASQETFG
# Variants of: B1
# Assay: co-immunoprecipitation, Western blot densitometry; lysates of SH-SY5Y cells; three independent experiments; blot labelled IP:HA(LC3C); parent: 100; read off a plot
row,Variant,percent of parent
1,"chain 1 MEETIKDPPTSAVLLDHCHFSQVIFNSVEKFYIPGGDVTCHYTFTQHFIPRRKDWIGIFRVGWKTTREYYTFMWVTLPIDLNNKSAKQQEVQFKAYYLPKDDEYYQFCYVDEDGVVRGASIPFQFRPENEEDILVVTTQEEVEEIEQHNKELCKENQELKDSCISLQKQNSDMQAELQKKQEELETLQSINKKLELKVKEQKAAAATELLQLKEQNQKMSSENEKMGIRVDQLQAQLSTQEKEMEKLVQGDQDKTEQLEQLKKENDHLFLSLTEQRKDQKKLEQTVEQMKQNETTAMKKQQELMDENFDLSKRLSENEIICNALQRQKERLEGENDLLKRENSRLLSYMGLDFNSLPYQVPTSDEGGARQNPGLAYGNPYSGIQESSSPSPLSIKKCPICKADDICDHTLEQQQMQPLCFNCPICDKIFPATEKQIFEDHVFCHSL [chain 1 G140E, chain 1 D203A, chain 1 Y204A, chain 1 W205A, chain 1 E206A]",~230 % of WT
2,chain 1 MEETIKDPPTSAVLLDHCHFSQVIFNSVEKFYIPGGDVTCHYTFTQHFIPRRKDWIGIFRVGWKTTREYYTFMWVTLPIDLNNKSAKQQEVQFKAYYLPKDDEYYQFCYVDEDGVVRGASIPFQFRPENEEDILVVTTQEEVEEIEQHNKELCKENQELKDSCISLQKQNSDMQAELQKKQEELETLQSINKKLELKVKEQKDYWETELLQLKEQNQKMSSENEKMGIRVDQLQAQLSTQEKEMEKLVQGDQDKTEQLEQLKKENDHLFLSLTEQRKDQKKLEQTVEQMKQNETTAMKKQQELMDENFDLSKRLSENEIICNALQRQKERLEGENDLLKRENSRLLSYMGLDFNSLPYQVPTSDEGGARQNPGLAYGNPYSGIQESSSPSPLSIKKCPICKADDICDHTLEQQQMQPLCFNCPICDKIFPATEKQIFEDHVFCHSL [chain 1 G140E],~240 % of WT
3,"chain 1 MEETIKDPPTSAVLLDHCHFSQVIFNSVEKFYIPGGDVTCHYTFTQHFIPRRKDWIGIFRVGWKTTREYYTFMWVTLPIDLNNKSAKQQEVQFKAYYLPKDDEYYQFCYVDEDGVVRGASIPFQFRPENEEDILVVTTQGEVEEIEQHNKELCKENQELKDSCISLQKQNSDMQAELQKKQEELETLQSINKKLELKVKEQKAAAATELLQLKEQNQKMSSENEKMGIRVDQLQAQLSTQEKEMEKLVQGDQDKTEQLEQLKKENDHLFLSLTEQRKDQKKLEQTVEQMKQNETTAMKKQQELMDENFDLSKRLSENEIICNALQRQKERLEGENDLLKRENSRLLSYMGLDFNSLPYQVPTSDEGGARQNPGLAYGNPYSGIQESSSPSPLSIKKCPICKADDICDHTLEQQQMQPLCFNCPICDKIFPATEKQIFEDHVFCHSL [chain 1 D203A, chain 1 Y204A, chain 1 W205A, chain 1 E206A]",~130 % of WT

# Variants of: B1
# Assay: co-immunoprecipitation (anti-HA beads), Western blot densitometry; lysates of SH-SY5Y cells; three independent experiments; parent: 100; read off a plot
row,Variant,percent of parent
1,"chain 1 MEETIKDPPTSAVLLDHCHFSQVIFNSVEKFYIPGGDVTCHYTFTQHFIPRRKDWIGIFRVGWKTTREYYTFMWVTLPIDLNNKSAKQQEVQFKAYYLPKDDEYYQFCYVDEDGVVRGASIPFQFRPENEEDILVSTTQEEVEEIEQHNKELCKENQELKDSCISLQKQNSDMQAELQKKQEELETLQSINKKLELKVKEQKDYWETELLQLKEQNQKMSSENEKMGIRVDQLQAQLSTQEKEMEKLVQGDQDKTEQLEQLKKENDHLFLSLTEQRKDQKKLEQTVEQMKQNETTAMKKQQELMDENFDLSKRLSENEIICNALQRQKERLEGENDLLKRENSRLLSYMGLDFNSLPYQVPTSDEGGARQNPGLAYGNPYSGIQESSSPSPLSIKKCPICKADDICDHTLEQQQMQPLCFNCPICDKIFPATEKQIFEDHVFCHSL [chain 1 V136S, chain 1 G140E]",~53 % of WT
2,chain 1 MEETIKDPPTSAVLLDHCHFSQVIFNSVEKFYIPGGDVTCHYTFTQHFIPRRKDWIGIFRVGWKTTREYYTFMWVTLPIDLNNKSAKQQEVQFKAYYLPKDDEYYQFCYVDEDGVVRGASIPFQFRPENEEDILVVTTQEEVEEIEQHNKELCKENQELKDSCISLQKQNSDMQAELQKKQEELETLQSINKKLELKVKEQKDYWETELLQLKEQNQKMSSENEKMGIRVDQLQAQLSTQEKEMEKLVQGDQDKTEQLEQLKKENDHLFLSLTEQRKDQKKLEQTVEQMKQNETTAMKKQQELMDENFDLSKRLSENEIICNALQRQKERLEGENDLLKRENSRLLSYMGLDFNSLPYQVPTSDEGGARQNPGLAYGNPYSGIQESSSPSPLSIKKCPICKADDICDHTLEQQQMQPLCFNCPICDKIFPATEKQIFEDHVFCHSL [chain 1 G140E],~190 % of WT
3,chain 1 MEETIKDPPTSAVLLDHCHFSQVIFNSVEKFYIPGGDVTCHYTFTQHFIPRRKDWIGIFRVGWKTTREYYTFMWVTLPIDLNNKSAKQQEVQFKAYYLPKDDEYYQFCYVDEDGVVRGASIPFQFRPENEEDILVSTTQGEVEEIEQHNKELCKENQELKDSCISLQKQNSDMQAELQKKQEELETLQSINKKLELKVKEQKDYWETELLQLKEQNQKMSSENEKMGIRVDQLQAQLSTQEKEMEKLVQGDQDKTEQLEQLKKENDHLFLSLTEQRKDQKKLEQTVEQMKQNETTAMKKQQELMDENFDLSKRLSENEIICNALQRQKERLEGENDLLKRENSRLLSYMGLDFNSLPYQVPTSDEGGARQNPGLAYGNPYSGIQESSSPSPLSIKKCPICKADDICDHTLEQQQMQPLCFNCPICDKIFPATEKQIFEDHVFCHSL [chain 1 V136S],~53 % of WT
